Experimental data from patent US20240240141A1, “RAPID AND EFFICIENT CLINICAL GRADE PIGMENT EPITHELIUM INDUCTION METHOD, KIT, AND APPLICATION” (ALLIFE MEDICINE (ZHUHAI) LIMITED, priority 2021, published 2024).

Tested on: iPSCs
Assay: qPCR of PAX6 expression in iPSCs cultured in RDM1 with different BMP signaling pathway inhibitors
Type: cell-based
Conditions: 50 ng/mL noggin in RDM1 culture medium, day 6, Day 0 as control; compared with 2 μM Dorsomorphin or 3 μM LDN-193189 (FIG. 9)
Method: 1. Collect 200W cells, adding 1 ml TRIZOL, extracting RNA and determining the RNA concentration. Taking 1 μg RNA and reverse-transcribing it into cDNA. Premixing according to the system as follows in Table 1.
2. Then putting the above system into the Light cycler instrument for reaction according to the 3-step method with a number of cycles of 45. The reaction system is as follows in Table 2:
iPSCs were cultured according to the method of Example 1. 50 ng/mL noggin, 2 μM Dorsomorphin or 3 μM LDN-193189 was added to the RDM1 culture medium as three sets of parallel controls. The expression level of PAX6 in the cells on day 6 was detected.
The results are shown in FIG. 9: Day 0 was used as a control. The expression level of PAX6 was detected after 6 days of cell differentiation.

B1: noggin (protein, UniProt Q13253 28-232, looked up)
Noggin: QHYLHIRPAPSDNLPLVDLIEHPDPIFDPKEKDLNETLLRSLLGGHYDPGFMATSPPEDRPGGGGGAAGGAEDLAELDQLLRQRPSGAMPSEIKGLEFSEGLAQGKKQRLSKKLRRKLQMWLWSQTFCPVLYAWNDLGSRFWPRYVKVGSCFSKRSCSVPEGMVCKPSKSVHLTVLRWRCQRRGGQRCGWIPIQYPIISECKCSC
expression level of PAX6: the best effect and the highest expression level of PAX6
